Here are results for 1 protein from publication PMC9653972, “Thermophilic Inorganic Pyrophosphatase Ton1914 from Thermococcus onnurineus NA1 Removes the Inhibitory Effect of Pyrophosphate” (International Journal of Molecular Sciences, 2022).

Substrate in the data set: O=P(O)(O)OP(=O)(O)O
The experiment in a line: purified protein. In kind it is biochemical, Thermococcus onnurineus. The conditions noted are these: standard assay: 2 mM MgCl2, 50 mM Tris-HCl, 80 °C, optimum pH 9.0 (pH of the kinetic run not stated).

B1: Ton1914 (Thermococcus onnurineus NA1) (protein)
chain: MNPFHELEPGPEVPEVVYALIEIPKGSRNKYELDKKTGLLKLDRVLYSPFFYPVDYGIIPQTWYDDGDPFDIMVIMREPVYPLTIVEARPIGIMKMEDSGDKDWKVLAVPVEDPYFNDWKDIDDVPKAFLDEIAHFFQRYKELQGKVTTVEGWGTAEEAKREILRAIEMYKEKFGKKE
notes: about 120 kDa native-PAGE, homo-hexamer; pET28a Nco I/Xho I, E. coli BL21(DE3), heat-purified 80 °C; EC 3.6.1.1, Family I
With B1, the Km came to 1116 µM, the kcat is 30000 s⁻¹ and the kcat/Km worked out at 2.68e+07 M⁻¹ s⁻¹.
